One data set has as its target T1, usp/VDR heterodimer (Drosophila melanogaster / Homo sapiens, UniProt P20153;P11473 P20153:1-508,P11473:1-427).
T1 sequence 1: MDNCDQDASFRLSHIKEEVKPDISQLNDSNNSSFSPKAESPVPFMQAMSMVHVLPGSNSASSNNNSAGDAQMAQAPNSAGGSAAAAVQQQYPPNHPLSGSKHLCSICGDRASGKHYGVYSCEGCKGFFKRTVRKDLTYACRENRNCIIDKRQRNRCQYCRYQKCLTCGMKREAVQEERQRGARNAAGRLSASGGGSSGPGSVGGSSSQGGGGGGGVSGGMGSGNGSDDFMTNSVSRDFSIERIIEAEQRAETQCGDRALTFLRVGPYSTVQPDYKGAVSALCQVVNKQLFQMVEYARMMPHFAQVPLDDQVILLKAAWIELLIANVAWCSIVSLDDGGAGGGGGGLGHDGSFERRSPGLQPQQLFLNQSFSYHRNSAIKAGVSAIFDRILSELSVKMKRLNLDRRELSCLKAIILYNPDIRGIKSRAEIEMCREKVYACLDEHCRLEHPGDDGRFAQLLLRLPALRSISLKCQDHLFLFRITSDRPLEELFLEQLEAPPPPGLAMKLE
T1 sequence 2: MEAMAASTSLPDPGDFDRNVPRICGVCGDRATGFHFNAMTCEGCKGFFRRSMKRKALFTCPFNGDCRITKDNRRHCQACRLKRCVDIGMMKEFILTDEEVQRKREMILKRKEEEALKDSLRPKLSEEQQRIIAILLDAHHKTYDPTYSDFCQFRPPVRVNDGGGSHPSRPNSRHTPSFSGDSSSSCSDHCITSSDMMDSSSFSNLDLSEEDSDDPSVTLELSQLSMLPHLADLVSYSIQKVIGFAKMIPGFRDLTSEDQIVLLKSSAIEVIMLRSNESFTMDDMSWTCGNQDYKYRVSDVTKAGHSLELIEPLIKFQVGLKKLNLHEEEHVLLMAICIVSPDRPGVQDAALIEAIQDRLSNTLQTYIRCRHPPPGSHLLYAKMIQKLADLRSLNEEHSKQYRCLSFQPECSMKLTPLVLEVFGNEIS
Put plainly: EMSA; usp dependent; usp antibody supershift. Particulars: label: 32P. The procedure: (§1) For gel mobility shift assay, proteins were incubated with binding buffer, which contained 100 mM KCl, 7.5% glycerol, 20 mM HEPES pH 7.5, 2 mM DTT and 0.1% NP-40, on ice for 20 minutes in the presence of 2 μg of nonspecific competitor poly dI-dC and other oligo competitors. Then approximately 1 ng of ^32P-dCTP probe, which was labelled to specific activity about 1-5×10^8 cpm/μg by fill-in reaction with Klenow fragments, was added to the reaction and incubated at room temperature for 20 minutes. Antiserum or preimmune serum was added 10 minutes after the probe was added. The reaction was then loaded into 5% non-denaturing polyacrylamide gel in 0.5×TBE running buffer [1×TBE comprises 0.089 M Tris borate, 0.089 M boric acid and 0.002 M EDTA]. After electrophoresis, the gel was dried for autoradiography.
(§2) Using in vitro translated usp protein, interaction of usp with three mammalian nuclear receptors (TRβ, VDR and PPAR) was tested in gel mobility shift assays with the appropriate response element for each of the three receptors as the probes.
In general terms: A gel shift assay detects complexes by their altered migration in electrophoresis.

For a further data set, the target named is T2, usp/PPAR heterodimer (Drosophila melanogaster / Rattus …, UniProt P20153;P37230 P20153:1-508,P37230:1-468).
T2 sequence 1: T1 sequence 1
T2 sequence 2: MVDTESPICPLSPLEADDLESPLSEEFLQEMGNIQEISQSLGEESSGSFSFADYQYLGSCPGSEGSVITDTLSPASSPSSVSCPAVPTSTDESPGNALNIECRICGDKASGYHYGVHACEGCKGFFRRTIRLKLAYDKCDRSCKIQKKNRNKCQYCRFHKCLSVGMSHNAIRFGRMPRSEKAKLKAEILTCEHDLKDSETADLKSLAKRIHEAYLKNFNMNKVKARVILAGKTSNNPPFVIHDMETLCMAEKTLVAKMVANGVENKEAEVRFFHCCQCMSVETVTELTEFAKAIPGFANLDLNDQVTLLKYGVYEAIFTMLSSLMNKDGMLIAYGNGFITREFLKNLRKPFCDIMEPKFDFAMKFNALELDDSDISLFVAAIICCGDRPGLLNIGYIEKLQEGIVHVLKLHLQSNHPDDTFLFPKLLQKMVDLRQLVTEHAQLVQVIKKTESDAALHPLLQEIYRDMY
Put plainly: EMSA; high affinity; usp antibody supershift. Particulars: label: 32P. The procedure: as §1, §2

B1: SPP1-VDRE (DR3, printed SSP1) (dsDNA)
DNA 1: GGTTCACGAGGTTCA
DNA 2: TGAACCTCGTGAACC
With B1, in the data set with usp/VDR heterodimer, the binding result is given as “binds”.

B2: AOX-PPARE (DR1) (dsDNA)
DNA 1: AGGACAAAGGTCA
DNA 2: TGACCTTTGTCCT
Turning to B2, the binding result in the data set with usp/PPAR heterodimer is recorded as “binds”.

(Values after patent US7119077B1, “Multimeric forms of members of the steroid/thyroid superfamily of receptors with the ultraspiracle receptor” (The Salk Institute for Biological Studies, priority 1990, dated 2006).)
